Experimental data reported in the nanobody polyreactivity screen of Harvey et al. (2022).

experiment: yeast display, Sf9 membrane polyspecificity reagent, FACS + sequencing; frameworks hold sequencing errors
In short: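 Polyreactivity labels are assigned by the sorting gate from which each nanobody was recovered. The gates were low and high (top ~1%), set on anti-HA fluorescence for expression and streptavidin fluorescence for reagent binding. Before sorting, galactose-induced (36–48 hours) yeast display cells were stained for 1 hour at 4 °C with 10% biotinylated, detergent-solubilized Sf9 membrane reagent.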

Row | Sequence | polyreactivity (PSR sort gate)
1 | QDQLVESGGGLVQAGGSLRLSCAASGSIFPRYDMGWYRQAPGKERELVAAITGSGSSTYYADSVKGRFSISRDNAMNTVYLQMNSLKPEDTAGYYCAARKSRPPFPPPFDYYWRQGTQVTVSS | low polyreactivity
2 | QVQLVESGGGLVQAGGSLRLSCAASGSIFRYYAMVWYRQAPGKERELVAAISSGGNTKYADSVKGRFTISRDNAKNTVYLQRNSLKPADTAVYYCNADGKAGGDYDYWGQGTQVTVSS | low polyreactivity
3 | QVQLVESGGGLVQAGGSLRLSCAASGSTFHRNTMGWYRQAPGKERELVAGISLRGVRTYYADSVKGRFTISRDNAKNTVYLQMNSLKPEDTAVYYCAAGGPYTRNFKLGYWGQGTQVTVSS | high polyreactivity
4 | QVQLVESGGGLVQAGGSLRLSCAASGNTFTYYAMGWYRQAPGKERELVAAINIDVASTYYADSVKGRFTISRDNAKNTVYLQMNSLKPEDTAVYYCAAEVGVYPVYWYDYWGQGTQVTVSS | low polyreactivity
5 | QVHLVESGGGLVQAGGSLRLSCAASGITFQRYAMGWYREAPGKERELVASISTNGGTTYYADSVKGRFTISRHNAKNTVYLQMNSLKPEDTAVYYCNAESGYVYYIRYNYWGQGTQVTVSS | high polyreactivity
6 | QVQLVESGGGLVQAGGSLRLSCAASGLTFSDYAMGWYRQAPGKERELVAAITWRGTSTYYADSVKGRFTISRDNAKNTVYLQMNSLKPEDTAVYYCAARKYTGSGTRYYYWGQGTQVTVSS | high polyreactivity
7 | QVQLVESGGGLVQAGGSLRLSCAASGLIFWHYAMGWYRQAPGKERELVAAISRRGGSTYYADSVKGRFTISRDNAKNTVYLQMNSLKPEDTAVYYCAADVWGSSAQRGWRKDYYWGQGTQVTVSS | high polyreactivity
8 | QIQLVESGGGLVQAGGSLRLSCAASGRTFYSYAMGWYRQAPGKERELVAAINRGASTYYADSVKGRFTISRDNAKNTVYFQMNSLKPEDTAVYYCNAQYYYIPSSTDYDYWGQGTQVTVSS | high polyreactivity
9 | QVQLQESGGGLVQAGGSLRLSCAAIGTIFASQHMGWYRQAPGKERELVASIAKGGNTYYADSVKGRFTISRGNAKNTEYLQMNSLKPEDTAVYYCAAEIDLPYYYGSADDDYWGQGTQVTVSS | high polyreactivity
10 | QVQLVESGGGLVQAGGSLRLSCAASGIIFSDNAMGWYRQAPGKERELVAAIDWSGGSTYYADSVKGRFTISRDNAKNTVYLQMNSMKPEDSAVYDCAAEYRDYVPVNDTGDYWGQGTQVTVSS | low polyreactivity
11 | QVQHVESRGGLVQAGGSLRLSCAASGFTFYTNVMGWSRQAPGKERELVAAINSGGSTNYADSVKGRFTISRDNAKNTVYLQMNSLKAEDTAVYYCNKRGTEIGYDYWGQGTQVTVSS | low polyreactivity
12 | QVQLVESGGGLVQAAGSLRLSCAASGFTFLRYAMGWYRQAPGKERELVAGITKSGGTTYYADSVKGRFTISRDNAKNTVYLQMNSLKPEDTAVYYCNALYSRRRRPYTDDYDYWGQGTQVTVSS | high polyreactivity
13 | QVQLVESGGGLVQAGGSLRLSCAASGRIIYGNAMGWYRQAPGKERELVAAITSGGSTNYADSVKGRFTISRDNAKNTVYLQMNSLKPEDTAVYYCNAVVYSPYRYEYWGQGTQVTVSS | low polyreactivity
14 | QVQLVESGGGLVQAGGSLRLSCAASGGTFSLYAMGWYRQAPGKEREFVAAISWRGTSTYYADSVKGRFTISRDNAKNTVYLQMNSLKPEDTAVYYCAARAWHEYGSWGQGTQVTVSS | high polyreactivity
15 | QVQLVESGGGLVQAGGSLRLSCAASGFTFYRYAMGWYRQAPGNERELVAAISSGGRTTYADSVKGRFTISRDNANNTVYLQMNSLKPQDTAVYYCVFVYVYDYYYWGQGTQVTVSS | high polyreactivity
16 | QVQLVESGGCLVQAGGSLRLSCAASGFTFSSNAMGWYRQAPGKERELVAAISFNSTSTYYADSVKGRFTISRDNAKNTVYLQMNSLKPEDTAVYYCAADVPRVQSEPEYDYWGQGTQVTVSS | low polyreactivity
17 | QVQLVESGGGIVQAGGSLRLSCAASGRTFQANAMGWYRQAPGKERELVAVISSRGTRTYYADSVKGRFTISRDNAKNTVYLQMNSLKPEDTAVYYCAARVPSVGNQSGYDYWGQGTQVTVSS | high polyreactivity
18 | QVQLVESGGDLVQAGGSLRLSCAASGYTFIVKAMGWYRQAPGKERELVAGISYRGGRTFYADSVKGRFTISRDNAKNNVYLQMNSLKPEDTAVYYCAARKTGIPFYNYDYWGQGTQVTVSS | low polyreactivity
19 | QVQLVESGGGLVQAGGSLRLSCAASGSIFGHYAMGWYRQAPGKERELVAAISWSGTSTYYADSVKGRFTISRDNAKNTVYLQMNSLKPEDTAVYYCAAEASYNYGKYVVTYDYWGQGTQVTVSS | high polyreactivity
20 | QVQLVESGGGLVQAGGSLRLSCAASGSIFSYYAMGWYRQAPGKERELVATISNSGVSTYYADSVKGRFTISRDNAKNTVYLQMNSLKPEDTAVYYCAKEWLYYNGFFRSYYWGQGTQVTVSS | high polyreactivity
21 | QVQLVESGGGLVQAGGSLRLSCAASGSIFDFYAMGWYRQAPGKERELVAAIDDIDDSTYYADSVKGRFTISRDNAKNTVYLQMNCLNPEDTAVYYCAAELRPGYRSSYGLIYDYWGQGTQVTVSS | low polyreactivity
22 | QVQLVESGGGLVQAGGSLRLSCAASGRIFWPYAMGWSRQAPGKERELVAAITSGGSTYYADSVKGRFTISRDNAKNTVYLQMNSLKPEDTAVYYCAKRSSGVSVPVAYGGIKRYNSWGQGTQVTVSS | low polyreactivity

Row | Sequence | polyreactivity (PSR sort gate)
23 | QVQLVESGGGLVQAGGSLRLSCAASGFTIVYYSMGWYRQAPGKERELVATISSGGGTNYADSVKGRFTISRDNAKNTVYLQMNSLTPEDTAVYYCAAEYYTGYFKYDYWGQGTQVTVSS | high polyreactivity
24 | QVQLVESVGGLVQAGGSLRLSCAASGFIFPYYVMGWYRQAPGKERELVAAITSVGITYYADSVKGRFTISRDNAKNTVYLQMNSLKPEDTAVYYCAADYKYFYDWGSFVEDEYWGQGTQVTVSS | high polyreactivity
25 | QVQLVESGGGLVQAGGSLRLSCAASGRIFKWYAMGWSRQAPGKEREFVAGISGSAGRTYYADSVKGRFTISRDNAKNTVYLQMNSLKPEDTAVYYCAKDYNRPVEDWAKVNGYDYWGQGTQVTVSS | low polyreactivity
26 | QVQLVESGGRLVQAGGSLRLSCAASGSIFRYYALGWYRQAPGKERELVAAISWSGGSTYYADSVKGRFTISRDNAKNTVYLQMNSLKPEDTAVYYCATTPGVWSTGGTNGFGYWGQGNQVTVSS | high polyreactivity
27 | QVPLVESGGGLVQAGGSLRLSCAASGRNYFKYAMGWYRQAPGKERELVATITWRGSSTYYSDSVKGRFTISRDNAKNTVFLQMNSLKPEDTAVYYCAARYLYTDEYWDKFYYWGQGTQVTVSS | high polyreactivity
28 | QVQLVESGGGLVQAGGSLRLSCAASGSIFGRYAMGWYRQAPGKERELVAAISSSGGRTYYADSVKGRFTISRDNAKNTVYLQMNSLKPEDTAVYYCNAGTPYRGDYWGQGTQVTVSS | high polyreactivity
29 | QVQLVESGGGLVQAGGSLRLSCAASGRIFGGYAMGWYRQAPGKERELVAVITDGGSTNYADSVKGRFTISRDNAKNTVYLQMNSLKPEDTAVYYCAADDRIYPRGYDKMDYWGQGTQVTVSS | low polyreactivity
30 | QVQLVESGGGLVQAGGSLRLISAASGITFDPYAMGWYRQAPGKEREFVAAITRRSASTYYADSVKGRFTISRDNAKNTVYLQMNSLKPEDTALYYCAARGKVPYNYWGQGTQVTVSS | high polyreactivity
31 | QVQIVESGGGLVQAGGSLRLSCAASGIIFYRYAMGWSRQAPGKERELVAAITWSGVSTSYADSVKGRFTISRDNAKNTVYLQMNSLKPEVTAVYDCNKDPGTLYGDMDSWGQGTQVSVSS | low polyreactivity
32 | QVQLVESGGGIVQAGGSLRLCCAASGRSFSHYAMGWSRQAPGKDRELVATITRNGGITYYADSVKWRFTISRDNAKNTVYLQMNSLKPEDTAVYYCAAGRYYNLRATHGYWGQATQVTVSS | low polyreactivity
33 | QVQLVESGGGLVQAGGSLRLSCAASGIILPRYAMGWYRQAPGKERELVAAISRGGGTYYADSVKGRFTISRDNAKNTVYLQMNSLIPEDTAVYYCAAAYVFVGSSHYYWGQGTQVTVSS | high polyreactivity
34 | HVQLVESGGGLVQAGGSLRLSCAASGRTFGIYAMGWYRKAPGKERELVAAITGRGGSTHYADSVKGRFTISRDNAKNTVYLQMNSLKPEDTAVYYCAADYRYNRGITSNKDYDYWGQGTQVTVSS | low polyreactivity
35 | QVQLEESGGGLVQAGGSLRISCAAYGRTLRQYALGWYRQAPGKERELVAAISRGGSTTYADSVKGRFTISRDNAKNTVYLQMNSLKPEDTAVYYCAAVSSKGNRHEYDYWGQGTQVTVSS | low polyreactivity
36 | QVQLVESGGGLVQAGGSLRLSCAASGRTFPLNAMGWYRQAPGKERELVARISSNGGSTYYADSMKGRFTISRDNAKNTVYLQMNSLKPEDTAVYYCAARYYSRRGLYYWGQGTQVTVSS | high polyreactivity
37 | QVQRVESGGGLVQAGGSLRLSSAASGSIFFDYAMRGYRQAPGNERELVAAISGSGGSRYYADSVKGRFTISRDNAKNTVYLQMNSLIPEDTAVYYCAAGYKYFRIRYDYWGQGTQVTVSS | high polyreactivity
38 | QDQLVESGGGLVQAGGSHRLSCAASGRTFYLYAMGWYRHAPGKERELVAGISYRGSRTYYADSVKVRFTISRDYEKNTVYLQMNSLKPEDTAVYYCATPAGQAAYDYWGQGTQVTVSS | high polyreactivity
39 | QVQLVESGGGLVQAGGSLRLSCAASGITFARYAMGWYRQAPGKERELVAAISQSGGSTYYADSVKGRFTISRDNAKNTVYLQMNSLKPEDTAVYYCNAYYVNYVSNYEYWGQGTQVTVSS | high polyreactivity
40 | QVQLVESGGGLVQAGGSLRLSCAASGGTFSRNVMGCYRPAPGKERELVSAISRRGSSTYYADSVKGRFTISRDNAKNTVFLQMNSLKPEDTAVYYCARDQFTGADEAGDDYWGQGTQVTVSS | high polyreactivity
41 | QVQLVESGGGLVQEGGSLRLICSASGIILGPYAMGWYRQAPGKESELVSAISWRGGSTYYADSVKGRFTISRDNAKNTVYLQMNSLKPEDTAVYYCATASRTSRTGWAVYYWGQGTQVTVSS | high polyreactivity
42 | QVQLVESVGGLVQAGGSLRLSCAASGFIFSYYAMGRYRQAPGKERELVATINFSGGRTYYADSVKGRFTISRDNAKNTVYLQMNSLKPEDTAVYYCAAVARSRAAPGVGYWGQGTQVTVSS | high polyreactivity
43 | QDQLVESGGGLVQARVSLRLSCAASGLIFRRYAMGWYRQAPGKEREFVAAITVSGGRTYYADSVKGRFTISRDNAKNTVYLQMNSLKQEDTAVYYCDAHGYGDNRNKYFYWGLGTQVTVSS | high polyreactivity
